{"source": "patent US20070243569", "key": {"[1]": {"tested_on": "T1, non-phosphorylated pKID-PKA", "T1 sequence": "DKNADGWIDRASLA"}, "[2]": {"tested_on": "T2, non-phosphorylated pKID-Erk", "T2 sequence": "DKNADGWIDAASPA"}, "[3]": {"tested_on": "T3, non-phosphorylated pKID-PKC", "T3 sequence": "DKNADGWIDAASLK"}}}
{"substance": "Protein Kinase A (PKA)", "values": [{"measurement": "extent of peptide phosphorylation by HPLC (conversion to phosphorylated peptide)", "setting": "[1]", "result": "pKID-PKA was enzymatically phosphorylated to >95% conversion in 12 hrs by PKA"}, {"measurement": "phosphorylation in HeLa nuclear extract with added PKA after 3 h, conversion by HPLC", "setting": "[1]", "result": "Phosphorylation proceeded at 75% conversion as measured by HPLC"}, {"measurement": "extent of peptide phosphorylation by HPLC", "setting": "[2]", "result": "under identical conditions pKID-Erk (FIG. 9) and pKID-PKC (FIG. 10) showed no evidence of phosphorylation"}, {"measurement": "extent of peptide phosphorylation by HPLC", "setting": "[3]", "result": "under identical conditions pKID-Erk (FIG. 9) and pKID-PKC (FIG. 10) showed no evidence of phosphorylation"}]}
